From patent publication US20190169313A1 come the findings set out here.

In the assay the target is D-dimer. In words: detection of D-dimer; format not described.

Regarding “mouse monoclonal antibody AB424 directed to GGEL (Abcam, catalog number AB424)”, the titer was determined as 0.6 µg/mL.
